# T1: endogenous parkin of PC12 cells (UniProt Q9JK66 1-465)
# T1 construct: also called 50 kDa parkin band
# T1 sequence (looked up): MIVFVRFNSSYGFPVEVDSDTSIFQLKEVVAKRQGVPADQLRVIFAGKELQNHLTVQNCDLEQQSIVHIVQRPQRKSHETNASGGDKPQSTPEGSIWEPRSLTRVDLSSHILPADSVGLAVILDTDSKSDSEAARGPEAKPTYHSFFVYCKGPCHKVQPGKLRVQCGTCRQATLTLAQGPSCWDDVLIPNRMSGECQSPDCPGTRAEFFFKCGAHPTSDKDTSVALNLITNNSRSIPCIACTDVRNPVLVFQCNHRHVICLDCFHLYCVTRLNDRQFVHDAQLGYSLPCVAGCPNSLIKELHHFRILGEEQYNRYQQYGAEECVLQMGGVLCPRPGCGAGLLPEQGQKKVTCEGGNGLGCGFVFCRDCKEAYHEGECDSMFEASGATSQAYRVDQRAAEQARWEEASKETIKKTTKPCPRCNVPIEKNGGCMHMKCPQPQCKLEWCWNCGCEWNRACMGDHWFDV
# How the values were obtained:
# [1] = target: T2, GFP-syt11 (GFP-tagged full-length human synaptotagmin XI) (human, UniProt P42212 1-238 = GFP); test: co-IP with anti-HA agarose from HEK293 cells, anti-GFP blot
# T2 construct: also called GFP-sytXI; GFP-sytxI
# Description: To determine which domain of parkin binds to synaptotagmin, several truncated parkins tagged with the HA epitope were constructed (FIG. 3A). […] Each truncated construct was coexpressed with GFP-sytxI. After 24 h, protein extracts were immunoprecipitated with rat anti-HA-conjugated agarose followed by western blot detection with anti-GFP antibody.
# [2] = target: T3, hemaglutinin-parkin (HA-parkin), full-length wild type (UniProt O60260 1-465); test: co-IP
# T3 construct: also called pCMV-HA-parkin
# [3] = target: endogenous parkin of human cerebral cortex (human, UniProt O60260 1-465, limits assumed); test: co-IP from human cerebral cortex extract
# Description: To determine whether parkin interacted with endogenous sytXI, protein extract from human cerebral cortex was immunoprecipitated with the anti-parka antibody. For co-immunoprecipitation of human brain extracts, a 1.4 g sample of human cerebral cortex was chopped into small pieces and resuspended in 7 ml of cold lysis buffer (100 mM Tris-HCl, pH 7.5, 150 mM NaCl, 1% Triton X-100, 0.05% SDS, 0.05% deoxycholic acid, and 1 protease inhibitor pellet/10 ml buffer). The cell suspension was homogenized by a glass homogenizer. Protein lysate was aliquoted into 1 ml aliquots and microfuged at top speed in the cold room. Protein extracts were precleared with rabbit IgG conjugated agarose and protein A conjugated agarose for 3 h at 4° C., and the precleared lysate was incubated with rabbit anti-parkA or mouse anti-sytXI antibody overnight in the cold room. The primary antibodies were pulled down with protein A conjugated agarose for 4 h at 4° C. The final pellets were washed five times with co-ip buffer, and the coprecipitates were eluted from the secondary antibody-conjugated agarose with SDS-PAGE buffer.
# [4] = target: T1, endogenous parkin of PC12 cells; test: co-IP with mouse anti-syt1 from PC12 extracts
# Description: PC12 cells were grown in DMEM containing 10% heat-inactivated serum, 5% fetal bovine serum, and penicillin/streptomycin in a 37° C. incubator with 10% CO₂. Media were changed every 3 days. PC12 cells were grown for 48 hours, and proteins were extracted in co-ip buffer (50 mM Tris-HCl, pH 7.5, 0.2% Triton X-100, 150 mM NaCl, and one protease inhibitor pellet (Roche) per 10 ml buffer). Protein extracts were precleared with mouse or rabbit IgG conjugated agarose and incubated with the respective antibodies overnight in the cold room. The primary antibodies were pulled down with anti-mouse or anti-rabbit IgG conjugate agarose for two hours. The final pellets were washed 7 times with co-ip buffer, and the coprecipitates were eluted from the secondary antibody-conjugated agarose with SDS-PAGE buffer. Co-ip products were immunoblotted with either anti-parkin or anti-syt antibodies.
# [5] = target: GAL4 binding domain-parkin(1-465) fusion encoded by pGBT9-parkin(1-465) (UniProt P04386 1-147; O60260 1-465); test: cell-based or functional assay
# [6] = target: T4, GAL4 binding domain alone (pGBT9 vector control) (UniProt P04386 1-147); test: yeast two-hybrid filter assay
# T4 construct: Empty bait vector control; also called negative control vector pGBT9
# Description: (§1) As previously described (Shibata et al., Hum. Mol. Genet. 9:1303-1313 (2000) and Scoles et al., Nat. Genet. 18:354-359 (1998)), the bait plasmid was cotransformed in yeast strain Y190 and grown on synthetic media without leucine, tryptophan, and histidine, and with 25 mM 3-amino-1,2,4-triazole and 2% glucose. The Y190 strain allows for nutritional selection of the HIS3 gene that allows growth in media lacking histidine and color selection using the LacZ gene encoding β-galactosidase. The β-galactosidase reporter was assayed on stamped nitrocellulose filters by incubating freeze-fractured colonies in Z-buffer (60 mM Na₂HPO₄, 40 mM NaH₂PO₄, 10 mM KCl, 1 mM MgSO₄, pH 7.0, 0.03 mM β-mercaptoethanol, and 2.5 μM X-gal) at 37° C. for 15 min to 8 hr. Positive clones were restreaked on synthetic media without leucine or tryptophan, and retested for β-galactosidase activity, and then pGAD10. “prey” plasmids were isolated.
# [7] = target: T5, GAL4 binding domain-NF2 fusion encoded by pGBT9-NF2 (schwannomin tumor suppressor) (UniProt P04386 1-147; P35240 1-595, limits assumed); test: yeast two-hybrid filter assay
# T5 construct: also called pGBT9-NF1
# Description: as §1
# [8] = target: T6, GAL4 binding domain-Hrs fusion encoded by pGBT9-Hrs (hepatocyte growth factor regulated kinase substrate) (UniProt P04386 1-147; O14964 1-777, limits assumed); test: yeast two-hybrid filter assay
# T6 construct: Unrelated bait control
# Description: as §1
binder,measurement,setting,value
"HA-tagged truncated parkin p294-385 (enzyme, UniProt O60260 294-385, looked up, not shown: small tags and cut ends, range 294-385) PNSLIKELHHFRILGEEQYNRYQQYGAEECVLQMGGVLCPRPGCGAGLLPEPDQRKVTCEGGNGLGCGFAFCRECKEAYHEGECSAVFEASG",binding result,[1],no binding
"full length synapsin-like protein (SLP), GFP fusion (other, the construct is inferred; also called the full length protein; not shown: green fluorescent protein (GFP)) MAQHIQLPGVKALVYVCFTAVLGHSVGWHRGHFGQHGLGRGAVRTRLWIRPGHATFLGQRRAGHQCRFPGSRRRQLLKEPKPSPAAPSSFSSSPPPGPPRIAAAAFSSPGRCGCGCPCHLLTAEPPTQDGGRLSLGPEQNLGPHPQKPGCKRAAPTYESCIKFPTRLRFIRLEVEQHHLVDIVAVTTKTGKTEATPHGMRLMNELLQPGCQGSEEKPLRPCFLIISYA",binding result,[2],binds
"endogenous synaptotagmin XI of human brain (other, Endogenous protein; also called endogenous sytXI; sytXI protein band) MAEITNIRPSFDVSPVVAGLIGASVLVVCVSVTVFVWSCCHQQAEKKHKNPPYKFIHMLKGISIYPETLSNKKKIIKVRRDKDGPGREGGRRNLLVDAAEAGLLSRDKDPRGPSSGSCIDQLPIKMDYGEELRSPITSLTPGESKTTSPSSPEEDVMLGSLTFSVDYNFPKKALVVTIQEAHGLPVMDDQTQGSDPYIKMTILPDKRHRVKTRVLRKTLDPVFDETFTFYVIPYSQLQDLVLHFLVLSFDRFSRDDVIGEVMVPLAGVDPSTGKVQLTRDIIKRNIQKCISRGELQVSLSYQPVAQRMTVVVLKARHLPKMDITGLSGNPYVKVNVYYGRKRIAKKKTHVKKCTLNPIFNESFIYDIPTDLLPDISIEFLVIDFDRTTKNEVVGRLILGAHSVTASGAEHWREVCESPRKPVAKWHSLSEY",binding result,[3],binds
"HA-tagged truncated parkin p1-203 (enzyme, UniProt O60260 1-203, looked up, not shown: small tags and cut ends) MIVFVRFNSSHGFPVEVDSDTSIFQLKEVVAKRQGVPADQLRVIFAGKELRNDWTVQNCDLDQQSIVHIVQRPWRKGQEMNATGGDDPRNAAGGCEREPQSLTRVDLSSSVLPGDSVGLAVILHTDSRKDSPPAGSPAGRSIYNSFYVYCKGPCQRVQPGKLRVQCSTCRQATLTLTQGPSCWDDVLIPNRMSGECQSPHCPG",binding result,[1],no binding
"endogenous synaptotagmin 1 of PC12 cells (other, UniProt P21707 1-421, looked up, also called syt1; endogenous syt1) MVSASHPEALAAPVTTVATLVPHNATEPASPGEGKEDAFSKLKQKFMNELHKIPLPPWALIAIAIVAVLLVVTCCFCVCKKCLFKKKNKKKGKEKGGKNAINMKDVKDLGKTMKDQALKDDDAETGLTDGEEKEEPKEEEKLGKLQYSLDYDFQNNQLLVGIIQAAELPALDMGGTSDPYVKVFLLPDKKKKFETKVHRKTLNPVFNEQFTFKVPYSELGGKTLVMAVYDFDRFSKHDIIGEFKVPMNTVDFGHVTEEWRDLQSAEKEEQEKLGDICFSLRYVPTAGKLTVVILEAKNLKKMDVGGLSDPYVKIHLMQNGKRLKKKKTTIKKNTLNPYYNESFSFEVPFEQIQKVQVVVTVLDYDKIGKNDAIGKVFVGYNSTGAELRHWSDMLANPRRPIAQWHTLQVEEEVDAMLAVKK",binding result,[4],binds
"GAL4 activation domain-MP23a fusion (partial clone of human synapsin-like protein, SLP, in pGAD10) (other, not shown: large carriers, also called SLP (MP23a)) SFSSSPPPGPPRIAAAAFSSPGRCGCGCPCHLLTAEPPTQDGGRLSLGPEQNLGPHPQKPGCKRAAPTYESCIKFPTRLRFIRLEVEQHHLVDIVAVTTKTGKTEATPHGMRLMNELLQPGCQGSEEKPLRPCFLIISYA","β-galactosidase activity in yeast two-hybrid liquid assay, against negative control vector pGBT9",[5],~30 fold
same,binding result,[6],no binding
same,binding result,[7],no binding
same,binding result,[8],no binding
"HA-tagged truncated parkin p294-465 (enzyme, UniProt O60260 294-465, looked up, not shown: small tags and cut ends) PNSLIKELHHFRILGEEQYNRYQQYGAEECVLQMGGVLCPRPGCGAGLLPEPDQRKVTCEGGNGLGCGFAFCRECKEAYHEGECSAVFEASGTTTQAYRVDERAAEQARWEAASKETIKKTTKPCPRCHVPVEKNGGCMHMKCPQPQCRLEWCWNCGCEWNRVCMGDHWFDV",binding result,[1],no binding
